Data taken from publication PMC6529005, “FMRP - G-quadruplex mRNA - miR-125a interactions: Implications for miR-125a mediated translation regulation of PSD-95 mRNA”.

Key:
FMRP ISO1 [1] = molecular target: T1, FMRP ISO1 (UniProt Q06787 1-632); assay: fluorescence titration (2AP); 150 mM KCl, 1 uM BSA; Fluorescence: 10 mM cacodylic acid pH 6.5, 150 mM KCl, 1 uM BSA, 200 nM RNA; EMSA: 0.5x TBE native gels at 4 C (5 mM KCl for PSD-95 RNAs), incubation at room te
FMRP ISO1 [2] = molecular target: T1, FMRP ISO1; assay: EMSA; 200 nM RNA, up to 1:2; Fluorescence: 10 mM cacodylic acid pH 6.5, 150 mM KCl, 1 uM BSA, 200 nM RNA; EMSA: 0.5x TBE native gels at 4 C (5 mM KCl for PSD-95 RNAs), incubation at room te
FMRP ISO1 [3] = molecular target: T1, FMRP ISO1; assay: EMSA; 200 nM RNA, up to 1:6 RNA:protein; Fluorescence: 10 mM cacodylic acid pH 6.5, 150 mM KCl, 1 uM BSA, 200 nM RNA; EMSA: 0.5x TBE native gels at 4 C (5 mM KCl for PSD-95 RNAs), incubation at room te

| Binder | Kd (FMRP ISO1 [1]) [nM] | other results |
| --- | --- | --- |
| GGGAAAAGGGAGGGAUGGG (structured_RNA, A11 replaced by 2-aminopurine) [PSD-95 Q11234 11-2AP] | 128 | – |
| UAGGUAGUUUCAUGUUGUUGGG (ssRNA) [miR-196a-1] | – | binding result (FMRP ISO1 [2]): no binding |
| UCCCUGAGACCCUUUAACCUGUGA (ssRNA) [miR-125a] | – | binding result (FMRP ISO1 [3]): no binding |
| GGGAGGGAGGGUGGG (structured_RNA, A4 replaced by 2-aminopurine) [PSD-95 Q2 4-2AP] | 195 | – |
